Patent publication US20170326260A1 (CYTOMX THERAPEUTICS, published 2017)

Experiments:
parental antibody C225v5 = experiment: ELISA; target antibody coated at 1 ug/ml, HRP anti-rabbit IgG, OD 450 nm
Procedure: (§1) The plates were washed with PBS/0.05% Tween 20 (wash butter) and then blocked with PBS/1% BSA for 1 hour at room temperature. The blocking buffer was removed, and the anti-AA antibodies 41, 58, 72 or 85, i.e., antibodies that bind activatable antibodies and/or conjugated activatable antibodies, were added and incubated for 1 hour. The plates were washed with wash buffer and incubated with 50 μl of 1 μg/ml of horseradish peroxidase conjugated donkey anti-rabbit IgG antibody for 1 hour. The plates were washed with wash buffer and 100 μl/well of TMB substrate was added. The reaction was stopped by the addition of 100 μl 1M HCl and the OD 450 nm was measured.

[1] = biological target: 3954-1204-c225v5 activatable anti-EGFR antibody activated with uPA; experiment: as above
Procedure: as §1

binding result (parental antibody C225v5): no binding
binding result [1]: no binding
B1: antibody 85-1 (antibody, V domains shown)
VH: QSLEESGGHLVTPGTPLTLTCKASGFSLSSYCMSWVRQAPGKGLEWIGIIGGICSTYYAAWAKGRFTISKTSTTVDLKIASPTTEDTATYFCARPAYNSDPIWGPGTLVTVSS
VL: QVLTQTPSPVSVAVGGTVTINCQASQSVYNNNYLSWYQQKPGQPPKVLIYDAATLASGVSSRFRGSGSGTQFTLTISDVQCDDAATYYCLGEFSCGSADCNAFGGGTEVVVKG
notes: also called clone 85
